Numbering of substitutions follows the chain as printed.
B1: Antibody 58: 1994-01-C7 variant; VH SEQ ID NO: 31, VL SEQ ID NO: 37 (antibody, V domains shown)
VH: QVQLVQSGAEVKKPGASVKVSCKASGYTFTSYGISWVRQAPGQGLEWMGWISAYNANVNYAQKLQGRVTMTTDTSTSTAYMELRSLRSDDTAAYYCARVTGITGTTIGPWGQGTMVTVSS
VL: DIQMTQSPSSLSASVGDRVTITCRASQSISSYLNWYQQKPGKAPKLLIYDASSLESGVPSRFSGSGSGTEFTLTISSLQPDDFAVYYCQQYNNWPQTFGQGTKVEIK
B2: Antibody 60: 1994-01-C7 variant; VH SEQ ID NO: 33, VL SEQ ID NO: 37 (antibody, V domains shown)
VH: B1 VH with A56S, V58T
VL: B1 VL
B3: Antibody 54: 1994-01-C7 variant; VH SEQ ID NO: 30, VL SEQ ID NO: 37 (antibody, V domains shown)
VH: B1 VH with V58T
VL: B1 VL
B4: A11BB133: 79E3E3 variant; VH SEQ ID NO: 4, VL SEQ ID NO: 21 (antibody, V domains shown)
VH: QIQLVQSGSELKKPGASVKVSCKASGYTFTDYAMNWVRQAPGQGLEWMGWINTQTGKPTYAQGFTGRFVFSLDTSVSTAYLQISSLKAEDTAVYYCTRLGTGNTKGFAYWGQGTLVTVSS
VL: DIQITQSPSSLSASVGDRVTITCKSSQSLLYSENNQDYLAWYQQKPGKVPKLLIYGASNRHTGVPSRFSGSGSGTDFTLTISSLQPEDVATYYCEQTYRYPFTFGQGTKLEIK
B5: A11BB134: 79E3E3 variant; VH SEQ ID NO: 10, VL SEQ ID NO: 22 (antibody, V domains shown)
VH: B4 VH with V20I, R38K, Y95F
VL: B4 VL with I4M
B6: A11BB139: 79E3E3 variant; VH SEQ ID NO: 5, VL SEQ ID NO: 22 (antibody, V domains shown)
VH: QIQLVQSGAEVKKPGSSVKVSCKASGYTFTDYAMNWVRQAPGQGLEWMGWINTQTGKPTYAQKFQGRVTFTLDESTSTAYMELSSLRSEDTAVYYCTRLGTGNTKGFAYWGQGTLVTVSS
VL: B4 VL with I4M
B7: A11BB136: 79E3E3 variant; VH SEQ ID NO: 14, VL SEQ ID NO: 22 (antibody, V domains shown)
VH: B4 VH with Y95F
VL: B4 VL with I4M
B8: A11BB131: 79E3E3 variant; VH SEQ ID NO: 11, VL SEQ ID NO: 21 (antibody, V domains shown)
VH: B4 VH with V20I, S77R, Y95F
VL: B4 VL
B9: A11BB142: 79E3E3 variant; VH SEQ ID NO: 6, VL SEQ ID NO: 22 (antibody, V domains shown)
VH: B6 VH with A79T, T97A
VL: B4 VL with I4M
B10: A11BB140: 79E3E3 variant; VH SEQ ID NO: 7, VL SEQ ID NO: 22 (antibody, V domains shown)
VH: B6 VH with A79T
VL: B4 VL with I4M
B11: A11BB143: 79E3E3 variant; VH SEQ ID NO: 15, VL SEQ ID NO: 22 (antibody, V domains shown)
VH: B6 VH with I2V
VL: B4 VL with I4M
B12: A11BB141: 79E3E3 variant; VH SEQ ID NO: 7, VL SEQ ID NO: 19 (antibody, V domains shown)
VH: B6 VH with A79T
VL: B4 VL
B13: A11BB138: 79E3E3 variant; VH SEQ ID NO: 12, VL SEQ ID NO: 21 (antibody, V domains shown)
VH: B4 VH with V20I, Y95F
VL: B4 VL
B14: A11BB112: 16E10 variant; VH SEQ ID NO: 49, VL SEQ ID NO: 61 (antibody, V domains shown)
VH: EVQLLESGGGLVQPGGSLRLSCAASGFSFSSSYYMCWVRQAPGKGLEWVSCIGTTRGSTYYADSVKGRFTISRDNSKNTLYLQMNSLRAEDTAVYYCARDATGYRINTIGLYFNLWGQGTLVTVSS
VL: DIVMTQSPDSLAVSLGERATINCQASQTIYSYLSWYQQKPGQPPKLLIYEASKLASGVPDRFSGSGSGTDYTLTISSLQAEDVAVYYCQSYHGTASTEYNTFGGGTKVEIK
B15: A11BB117: 16E10 variant; VH SEQ ID NO: 56, VL SEQ ID NO: 61 (antibody, V domains shown)
VH: B14 VH with C36S, C51A, N75S, L80V, Y96F
VL: B14 VL
B16: A11BB114: 16E10 variant; VH SEQ ID NO: 50, VL SEQ ID NO: 61 (antibody, V domains shown)
VH: B14 VH with L80V
VL: B14 VL
B17: A11BB127: 16E10 variant; VH SEQ ID NO: 46, VL SEQ ID NO: 61 (antibody, V domains shown)
VH: B14 VH with C36A, C51A, L80V
VL: B14 VL
B18: A11BB123: 16E10 variant; VH SEQ ID NO: 47, VL SEQ ID NO: 61 (antibody, V domains shown)
VH: B14 VH with C36A, C51A, N75S
VL: B14 VL
B19: A11BB125: 16E10 variant; VH SEQ ID NO: 55, VL SEQ ID NO: 61 (antibody, V domains shown)
VH: B14 VH with C36S, C51A, N75S
VL: B14 VL
B20: A11BB119: 16E10 variant; VH SEQ ID NO: 45, VL SEQ ID NO: 61 (antibody, V domains shown)
VH: B14 VH with C36A, C51A
VL: B14 VL
B21: A11BB121: 16E10 variant; VH SEQ ID NO: 53, VL SEQ ID NO: 61 (antibody, V domains shown)
VH: B14 VH with C36S, C51A
VL: B14 VL
B22: A11BB129: 16E10 variant; VH SEQ ID NO: 54, VL SEQ ID NO: 61 (antibody, V domains shown)
VH: B14 VH with C36S, C51A, L80V
VL: B14 VL

These molecules were tested against T1, CHO-hu α11 (Homo sapiens, UniProt Q9UKX5) (assay: FACS antibody binding to CHO-K1 cells expressing human α11). Settings: Table 11, 1994-01-C7 variants, FIG. 4A.
T1 construct: expressed in transfected cells; host or cells: CHO-K1
Description: 200,000 cells (wild-type CHO-K1 cells or CHO-K1 cells expressing human α11) were incubated with each antibody at desired concentrations in FACS buffer for 30 min at 4° C. Then, the cells were washed with FACS buffer and incubated with secondary antibody at 1:100 dilution for 30 minutes at 4° C. Cells were then washed and fixed with 1% PF A in PBS for 20 minutes at room temperature; washed again and read on a cytometer in FACS buffer.

T1 sequence (Q9UKX5 23-1188): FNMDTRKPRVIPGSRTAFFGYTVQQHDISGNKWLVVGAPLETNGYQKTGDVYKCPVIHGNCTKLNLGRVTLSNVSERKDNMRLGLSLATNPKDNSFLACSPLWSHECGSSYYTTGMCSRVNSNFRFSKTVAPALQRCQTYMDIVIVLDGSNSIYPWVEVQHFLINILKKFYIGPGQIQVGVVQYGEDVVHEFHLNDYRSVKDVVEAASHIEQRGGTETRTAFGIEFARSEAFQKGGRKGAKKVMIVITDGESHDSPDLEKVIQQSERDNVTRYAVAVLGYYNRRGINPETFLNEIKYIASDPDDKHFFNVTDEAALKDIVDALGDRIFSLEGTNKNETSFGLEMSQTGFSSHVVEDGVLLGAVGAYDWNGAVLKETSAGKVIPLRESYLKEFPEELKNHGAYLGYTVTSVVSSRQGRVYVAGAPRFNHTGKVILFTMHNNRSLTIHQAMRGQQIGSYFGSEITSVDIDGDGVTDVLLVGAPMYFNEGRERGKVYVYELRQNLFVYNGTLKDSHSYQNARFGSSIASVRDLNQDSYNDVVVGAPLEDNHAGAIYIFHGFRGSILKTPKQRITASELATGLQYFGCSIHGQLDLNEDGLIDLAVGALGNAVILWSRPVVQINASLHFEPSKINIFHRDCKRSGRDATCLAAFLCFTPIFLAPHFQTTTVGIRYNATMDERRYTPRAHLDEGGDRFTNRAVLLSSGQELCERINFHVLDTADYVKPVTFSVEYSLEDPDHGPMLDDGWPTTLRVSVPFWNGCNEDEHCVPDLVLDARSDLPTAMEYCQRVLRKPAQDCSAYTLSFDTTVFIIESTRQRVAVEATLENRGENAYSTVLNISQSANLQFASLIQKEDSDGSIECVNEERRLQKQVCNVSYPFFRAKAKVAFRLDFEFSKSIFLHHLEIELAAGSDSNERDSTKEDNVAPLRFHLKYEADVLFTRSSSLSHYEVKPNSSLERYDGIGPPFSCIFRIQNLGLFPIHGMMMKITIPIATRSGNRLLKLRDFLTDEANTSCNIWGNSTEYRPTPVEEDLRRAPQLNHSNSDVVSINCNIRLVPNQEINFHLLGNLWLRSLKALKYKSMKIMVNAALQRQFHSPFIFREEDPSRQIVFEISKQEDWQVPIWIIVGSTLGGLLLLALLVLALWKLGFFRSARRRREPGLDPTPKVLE
T1 sequence (P05556 21-798 partner): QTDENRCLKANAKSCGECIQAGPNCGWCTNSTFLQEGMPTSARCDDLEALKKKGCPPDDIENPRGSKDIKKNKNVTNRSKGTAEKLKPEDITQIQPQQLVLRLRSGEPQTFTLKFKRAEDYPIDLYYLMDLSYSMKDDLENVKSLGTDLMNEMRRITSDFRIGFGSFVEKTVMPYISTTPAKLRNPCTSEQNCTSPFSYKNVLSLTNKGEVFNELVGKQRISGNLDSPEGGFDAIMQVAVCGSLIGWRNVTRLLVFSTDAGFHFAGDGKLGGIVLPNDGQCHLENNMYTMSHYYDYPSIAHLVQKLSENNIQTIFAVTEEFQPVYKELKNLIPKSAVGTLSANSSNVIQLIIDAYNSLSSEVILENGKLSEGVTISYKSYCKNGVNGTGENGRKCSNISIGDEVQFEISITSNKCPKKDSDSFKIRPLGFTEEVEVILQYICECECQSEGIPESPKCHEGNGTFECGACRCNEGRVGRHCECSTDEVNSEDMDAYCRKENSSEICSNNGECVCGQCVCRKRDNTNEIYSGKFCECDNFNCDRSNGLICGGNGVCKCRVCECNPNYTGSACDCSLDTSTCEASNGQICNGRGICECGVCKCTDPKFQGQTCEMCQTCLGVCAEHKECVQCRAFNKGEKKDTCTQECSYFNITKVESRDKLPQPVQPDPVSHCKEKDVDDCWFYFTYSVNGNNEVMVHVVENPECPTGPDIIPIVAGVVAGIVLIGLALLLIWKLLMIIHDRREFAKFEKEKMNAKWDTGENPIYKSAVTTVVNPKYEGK

| EC50 | Molecule |
| --- | --- |
| 5.94 nM | B1 |
| 5.3 nM | B2 |
| 5.5 nM | B3 |

Same assay, conditions: Table 13, 79E3E3 variants

| EC50 | Molecule |
| --- | --- |
| 5.13 nM | B4 |
| 3.49 nM | B5 |
| 1.98 nM | B6 |
| 1.92 nM | B7 |
| 2.49 nM | B8 |
| 2.07 nM | B9 |
| 2.5 nM | B10 |
| 2.12 nM | B11 |
| 4.6 nM | B12 |
| 4.63 nM | B13 |

Each molecule was assayed against Pulmonary Myofibroblast (assay: FACS antibody binding to pulmonary myofibroblasts (HPF/MF)). Settings: Table 11, 1994-01-C7 variants, FIG. 4B.
Parameters: species or system human
Description: Human Pulmonary Fibroblasts (ScienCell) were cultured in complete Fibroblast Growth Medium (ScienCell) until 80% confluent in T-150 flasks. Cells were washed and harvested using Accutase. Cells were seeded into T-150 flasks at 7,500 cells/cm^2 in complete FGF and cultured for 72 hours. Cells were then washed and starved in serum reduced medium for 24 hours. After starvation, cells were treated with TGFβ1 (R&D Systems) for 72 hours. Cells were harvested using Accutase and seeded in 96-well conical bottom plates. Cells were blocked with Heat Inactived Fetal Bovine Serum (Gibco) for 30 minutes at 4° C. Cells were then incubated with anti-al I antibodies at the doses described in each figure for 30 minutes at 4° C. A human anti-al I antibody (Creative BioLabs) was included as a positive control as well as the appropriate IgG isotype negative controls. Cells were washed twice and incubated with PE conjugated secondary antibodies specific to the IgG class of the anti-α11 antibodies being tested for 30 minutes at 4° C. Cells were washed twice and fixed in 1% PF A for 30 minutes. Cells were acquired on a FACS Verse […]. Data were analyzed by gating on single cells and determining the geometric Mean Fluorescence Intensity (gMFI) in the PE channel for each sample.

| EC50 | Molecule |
| --- | --- |
| 2.87 nM | B1 |
| 4.6 nM | B2 |
| 2.4 nM | B3 |

The molecules below were run against T1, CHO-hu α11 (assay: Cell adhesion inhibition on type I collagen (xCelligence)). Settings: Table 11, 1994-01-C7 variants, FIG. 4C; read-out: Inhibition of Cell Adhesion IC50.
Assay type: cell-based
Description: 0.6×10^6 cells/mL were incubated with each antibody at a range of concentrations for 20 minutes at 37° C. E-Plate VIEW 96 PET plate coated with 100 ng/ml type I collagen or PBS overnight at room temperature was blocked in 3% BSA for 1 hour at room temperature. After washing the plate with PBS, cell and antibody mixture was added to the wells and the plate was places into an xCelligence machine. Cell adhesion was recorded over 6 hours. The time point of maximum cell adhesion was used for comparison relative to control.

| IC50 | Molecule |
| --- | --- |
| 3 nM | B1 |
| 4.2 nM | B2 |
| 3.5 nM | B3 |

Same assay, conditions: Table 12, 16E10 variants, FIG. 5B; read-out: CHO-α11 Adhesion Inhibition IC50

| IC50 | Molecule |
| --- | --- |
| 0.5 nM | B14 |
| 0.7 nM | B15 |
| 0.5 nM | B16 |
| 0.4 nM | B17 |
| 0.5 nM | B18 |
| 0.5 nM | B19 |
| 0.7 nM | B20 |
| 0.5 nM | B21 |
| 0.5 nM | B22 |

Reference: patent publication US20260184794A1, “ANTIBODIES AGAINST INTEGRIN ALPHA 11 BETA 1 AND USES THEREOF” (Momenta Pharmaceuticals, Inc., priority 2022, published 2026)
